Results published in PMC12505888, “Inhibitory activities of monoclonal antibodies against Staphylococcus aureus clumping factor A” (mBio, 2025).

Experiments:
[1] = biological target: Human von Willebrand factor (human) (UniProt P04275); experiment: ELISA; human vWF immobilised; vWbp with ClfA-A carrying only His tag added to the reaction; bound vWbp assessed with anti-StrepII antibody
[2] = biological target: A domain of S. aureus Newman ClfA (clumping factor A), residues 40-559 (Staphylococcus aureus Newman) (UniProt Q53653); experiment: ELISA; ClfA-A Newman immobilised (100 ng per well); serial dilutions of human complement factor I (20 μg/mL); detected with rabbit anti-factor I polyclonal antibody and anti-rabbit HRP
[3] = biological target: A domain of ClfA from S. aureus strain N315 (Staphylococcus aureus N315) (UniProt Q99VJ4); experiment: ELISA; ClfA-A proteins immobilised (100 ng per well, carbonate/bicarbonate buffer pH 9.6, 4°C overnight); serial dilutions of soluble human fibrinogen (4 mg/mL) in PBS; bound fibrinogen detected with anti-human fibrinogen-HRP, A450
[4] = biological target: A domain of ClfA from S. aureus strain USA300 LAC (Staphylococcus aureus USA300 LAC); experiment: as above
[5] = biological target: A domain of ClfA from S. aureus strain WU1 (Staphylococcus aureus WU1); experiment: as above
[6] = biological target: Human von Willebrand factor (human) (UniProt P04275); experiment: ELISA; human vWF immobilised (100 ng per well); serial dilutions of recombinant ClfA-A (20 μg/mL) or recombinant vWbp (5 μg/mL); detected with anti-StrepII or anti-His HRP antibody
[7] = biological target: T1, A domain of S. aureus Newman ClfA (clumping factor A), residues 40-559 (Staphylococcus aureus Newman, UniProt Q53653 40-559); experiment: ELISA; ClfA-A proteins immobilised (100 ng per well, carbonate/bicarbonate buffer pH 9.6, 4°C overnight); serial dilutions of soluble human fibrinogen (4 mg/mL) in PBS; bound fibrinogen detected with anti-human fibrinogen-HRP, A450; conditions: both partners purified
T1 construct: Cloned in pET15b (NdeI/BamHI); also called ClfA-A; ClfA-A Newman; source: E. coli BL21, purified (Ni-NTA resin followed by Streptactin resin); not shown: His6, N-terminal, kept
T1 sequence: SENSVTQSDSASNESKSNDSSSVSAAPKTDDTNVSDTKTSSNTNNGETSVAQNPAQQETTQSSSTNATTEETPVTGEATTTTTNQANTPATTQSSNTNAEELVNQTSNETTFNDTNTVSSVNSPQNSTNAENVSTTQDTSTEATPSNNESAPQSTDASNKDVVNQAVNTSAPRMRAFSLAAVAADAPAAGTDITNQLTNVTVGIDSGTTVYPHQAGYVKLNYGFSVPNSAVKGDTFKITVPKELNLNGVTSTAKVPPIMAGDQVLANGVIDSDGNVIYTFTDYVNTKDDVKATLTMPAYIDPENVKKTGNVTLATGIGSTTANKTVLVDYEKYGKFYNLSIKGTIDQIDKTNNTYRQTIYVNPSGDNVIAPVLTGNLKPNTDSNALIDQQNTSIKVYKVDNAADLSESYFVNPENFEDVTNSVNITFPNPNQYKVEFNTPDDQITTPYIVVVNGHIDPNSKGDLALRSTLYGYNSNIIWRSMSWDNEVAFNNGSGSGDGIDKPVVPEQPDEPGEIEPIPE

“vWbp + ClfA-A Newman (from UniProt Q53653 40-559) (complex)” was tested, and the EC50 [1] was 3.5 µM.

Human complement factor I (enzyme) gave an EC50 [2] of 1800 nM.

Molecule “Human fibrinogen (from UniProt P02671-2 20-644; P02675 31-491; P02679-2 27-437) (complex)” has an EC50 [3] of 1300 nM, an EC50 [4] of 1000 nM and an EC50 [5] of 1100 nM.

“von Willebrand binding protein (vWbp) of S. aureus Newman, recombinant (natural protein)” showed an EC50 [6] of 14.5 µM.

B1: Human fibrinogen (complex)
chain 1: ADSGEGDFLAEGGGVRGPRVVERHQSACKDSDWPFCSDEDWNYKCPSGCRMKGLIDEVNQDFTNRINKLKNSLFEYQKNNKDSHSLTTNIMEILRGDFSSANNRDNTYNRVSEDLRSRIEVLKRKVIEKVQHIQLLQKNVRAQLVDMKRLEVDIDIKIRSCRGSCSRALAREVDLKDYEDQQKQLEQVIAKDLLPSRDRQHLPLIKMKPVPDLVPGNFKSQLQKVPPEWKALTDMPQMRMELERPGGNEITRGGSTSYGTGSETESPRNPSSAGSWNSGSSGPGSTGNRNPGSSGTGGTATWKPGSSGPGSTGSWNSGSSGTGSTGNQNPGSPRPGSTGTWNPGSSERGSAGHWTSESSVSGSTGQWHSESGSFRPDSPGSGNARPNNPDWGTFEEVSGNVSPGTRREYHTEKLVTSKGDKELRTGKEKVTSGSTTTTRRSCSKTVTKTVIGPDGHKEVTKEVVTSEDGSDCPEAMDLGTLSGIGTLDGFRHRHPDEAAFFDTASTGKTFPGFFSPMLGEFVSETESRGSESGIFTNTKESSSHHPGIAEFPSRGKSSSYSKQFTSSTSYNRGDSTFESKSYKMADEAGSEADHEGTHSTKRGHAKSRPVRGIHTSPLGKPSLSP
chain 2: QGVNDNEEGFFSARGHRPLDKKREEAPSLRPAPPPISGGGYRARPAKAAATQKKVERKAPDAGGCLHADPDLGVLCPTGCQLQEALLQQERPIRNSVDELNNNVEAVSQTSSSSFQYMYLLKDLWQKRQKQVKDNENVVNEYSSELEKHQLYIDETVNSNIPTNLRVLRSILENLRSKIQKLESDVSAQMEYCRTPCTVSCNIPVVSGKECEEIIRKGGETSEMYLIQPDSSVKPYRVYCDMNTENGGWTVIQNRQDGSVDFGRKWDPYKQGFGNVATNTDGKNYCGLPGEYWLGNDKISQLTRMGPTELLIEMEDWKGDKVKAHYGGFTVQNEANKYQISVNKYRGTAGNALMDGASQLMGENRTMTIHNGMFFSTYDRDNDGWLTSDPRKQCSKEDGGGWWYNRCHAANPNGRYYWGGQYTWDMAKHGTDDGVVWMNWKGSWYSMRKMSMKIRPFFPQQ
chain 3: YVATRDNCCILDERFGSYCPTTCGIADFLSTYQTKVDKDLQSLEDILHQVENKTSEVKQLIKAIQLTYNPDESSKPNMIDAATLKSRKMLEEIMKYEASILTHDSSIRYLQEIYNSNNQKIVNLKEKVAQLEAQCQEPCKDTVQIHDITGKDCQDIANKGAKQSGLYFIKPLKANQQFLVYCEIDGSGNGWTVFQKRLDGSVDFKKNWIQYKEGFGHLSPTGTTEFWLGNEKIHLISTQSAIPYALRVELEDWNGRTSTADYAMFKVGPEADKYRLTYAYFAGGDAGDAFDGFDFGDDPSDKFFTSHNGMQFSTWDNDNDKFEGNCAEQDGSGWWMNKCHAGHLNGVYYQGGTYSKASTPNGYDNGIIWATWKTRWYSMKKTTMKIIPFNRLTIGEGQQHHLGGAKQAGDV
notes: Fibrinogen A-alpha chain, human; Fibrinogen B-beta chain, human; Fibrinogen gamma chain, human; also called Fg; source: bought: Sigma; copies: 2 + 2 + 2
B1 gave an EC50 [7] of 1300 nM.
